In US11653679B2, “High-purity steviol glycosides” (PureCircle Sdn Bhd, priority 2014, dated 2023):
Numbering of substitutions follows the chain as printed.

B1: UGT76G1var91: UGT76G1 variant, mutations E224A_L246F_T263S_F265I_Q342K (protein, UniProt Q6VAB4 1-458, looked up, variant E224A L246F T263S F265I Q342K)
UDP-glycosyltransferase 76G1: MENKTETTVRRRRRIILFPVPFQGHINPILQLANVLYSKGFSITIFHTNFNKPKTSNYPHFTFRFILDNDPQDERISNLPTHGPLAGMRIPIINEHGADELRRELELLMLASEEDEEVSCLITDALWYFAQSVADSLNLRRLVLMTSSLFNFHAHVSLPQFDELGYLDPDDKTRLEEQASGFPMLKVKDIKSAYSNWQILKEILGKMIKQTKASSGVIWNSFKALEESELETVIREIPAPSFLIPFPKHLTASSSSLLDHDRSVIQWLDQQPPSSVLYVSFGSTSEVDEKDFLEIARGLVDSKQSFLWVVRPGFVKGSTWVEPLPDGFLGERGRIVKWVPQKEVLAHGAIGAFWTHSGWNSTLESVCEGVPMIFSDFGLDQPLNARYMSDVLKVGVYLENGWERGEIANAIRRVMVDEEGEYIRQNARVLKQKADVSLMKGGSSYESLESLVSYISSL
B2: UGT76G1var92: UGT76G1 variant, mutations K303G_S357N_V366I_V394I_I407V (protein, UniProt Q6VAB4 1-458, looked up, variant K303G S357N V366I V394I I407V)
UDP-glycosyltransferase 76G1: B1 UDP-glycosyltransferase 76G1 with A224E, F246L, S263T, I265F, K303G, K342Q, S357N, V366I, V394I, I407V
B3: UGT76G1var93: UGT76G1 variant, mutations I43V_Q266E_S375M_S389E_V394I (protein, UniProt Q6VAB4 1-458, looked up, variant I43V Q266E S375M S389E V394I)
UDP-glycosyltransferase 76G1: B1 UDP-glycosyltransferase 76G1 with I43V, A224E, F246L, S263T, I265F, Q266E, K342Q, S375M, S389E, V394I
B4: UGT76G1var95: UGT76G1 variant, mutations A33G_I295M_K303G_I335V_A385T (protein, UniProt Q6VAB4 1-458, looked up, variant A33G I295M K303G I335V A385T)
UDP-glycosyltransferase 76G1: B1 UDP-glycosyltransferase 76G1 with A33G, A224E, F246L, S263T, I265F, I295M, K303G, I335V, K342Q, A385T
B5: UGT76G1var96: UGT76G1 variant, mutations F22L_E229A_L243P_F377C_A385T (protein, UniProt Q6VAB4 1-458, looked up, variant F22L E229A L243P F377C A385T)
UDP-glycosyltransferase 76G1: B1 UDP-glycosyltransferase 76G1 with F22L, A224E, E229A, L243P, F246L, S263T, I265F, K342Q, F377C, A385T
B6: UGT76G1var6: UGT76G1 variant, mutations Q266S_S357N_I373L (protein, UniProt Q6VAB4 1-458, looked up, variant Q266S S357N I373L)
UDP-glycosyltransferase 76G1: B1 UDP-glycosyltransferase 76G1 with A224E, F246L, S263T, I265F, Q266S, K342Q, S357N, I373L
B7: gi115454819_NP_001051010.1: Os03g0702500 [Oryza sativa Japonica Group], SEQ ID NO:3 (protein, listed as Oryza sativa)
chain: MDDAHSSQSPLHVVIFPWLAFGHLLPCLDLAERLAARGHRVSFVSTPRNLARLPPVRPELAELVDLVALPLPRVDGLPDGAEATSDVPFDKFELHRKAFDGLAAPFSAFLDTACAGGKRPDWVLADLMHHWVALASQERGVPCAMILPCSAAVVASSAPPTESSADQREAIVRSMGTAAPSFEAKRATEEFATEGASGVSIMTRYSLTLQRSKLVAMRSCPELEPGAFTILTRFYGKPVVPFGLLPPRPDGARGVSKNGKHDAIMQWLDAQPAKSVVYVALGSEAPMSADLLRELAHGLDLAGTRFLWAMRKPAGVDADSVLPAGFLGRTGERGLVTTRWAPQVSILAHAAVCAFLTHCGWGSVVEGLQFGHPLIMLPILGDQGPNARILEGRKLGVAVPRNDEDGSFDRGGVAGAVRAVVVEEEGKTFFANARKLQEIVADREREERCIDEFVQHLTSWNELKNNSDGQYP
B8: gi187373030_ACD03249.1: UDP-glycosyltransferase [Avena strigosa], SEQ ID NO:4 (protein, listed as Avena strigosa)
chain: MAVKDEQQSPLHILLFPFLAPGHLIPIADMAALFASRGVRCTILTTPVNAAIIRSAVDRANDAFRGSDCPAIDISVVPFPDVGLPPGVENGNALTSPADRLKFFQAVAELREPFDRFLADNHPDAVVSDSFFHWSTDAAAEHGVPRLGFLGSSMFAGSCNESTLHNNPLETAADDPDALVSLPGLPHRVELRRSQMMDPKKRPDHWALLESVNAADQKSFGEVFNSFHELEPDYVEHYQTTLGRRTWLVGPVALASKDMAGRGSTSARSPDADSCLRWLDTKQPGSVVYVSFGTLIRFSPAELHELARGLDLSGKNFVWVLGRAGPDSSEWMPQGFADLITPRGDRGFIIRGWAPQMLILNHRALGGFVTHCGWNSTLESVSAGVPMVTWPRFADQFQNEKLIVEVLKVGVSIGAKDYGSGIENHDVIRGEVIAESIGKLMGSSEESDAIQRKAKDLGAEARSAVENGGSSYNDVGRLMDELMARRSSVKVGEDIIPTNDGL
B9: gi222619587_EEE55719.1: hypothetical protein OsJ_04191 [Oryza sativa Japonica Group], SEQ ID NO:6 (protein, listed as Oryza sativa)
chain: MHVVMLPWLAFGHILPFAEFAKRVARQGHRVTLFSTPRNTRRLIDVPPSLAGRIRVVDIPLPRVEHLPEHAEATIDLPSNDLRPYLRRAYDEAFSRELSRLLQETGPSRPDWVLADYAAYWAPAAASRHGVPCAFLSLFGAAALCFFGPAETLQGRGPYAKTEPAHLTAVPEYVPFPTTVAFRGNEARELFKPSLIPDESGVSESYRFSQSIEGCQLVAVRSNQEFEPEWLELLGELYQKPVIPIGMFPPPPPQDVAGHEETLRWLDRQEPNSVVYAAFGSEVKLTAEQLQRIALGLEASELPFIWAFRAPPDAGDGDGLPGGFKERVNGRGVVCRGWVPQVKFLAHASVGGFLTHAGWNSIAEGLANGVRLVLLPLMFEQGLNARQLAEKKVAVEVARDEDDGSFAANDIVDALRRVMVGEEGDEFGVKVKELAKVFGDDEVNDRYVRDFLKCLSEYKMQRQG
B10: EUGT11: putative UDP-glucoronosyl and UDP-glucosyl transferase [Oryza sativa Japonica Group], from WO/2013/022989A2, SEQ ID NO:8 (protein, listed as Oryza sativa)
chain: MHVVICPLLAFGHLLPCLDLAQRLACGHRVSFVSTPRNISRLPPVRPSLAPLVSFVALPLPRVEGLPNGAESTHNVPHDRPDMVELHLRAFDGLAAPFSEFLGTACADWVMPTSSAPRQTLSSNIHRNSSRPGTPAPSGRLLCPITPHSNTLERAAEKLVRSSRQNARARSLLAFTSPPLPYRDVFRSLLGLQMGRKQLNIAHETNGRRTGTLPLNLCRWMWKQRRCGKLRPSDVEFNTSRSNEAISPIGASLVNLQSIQSPNPRAVLPIASSGVRAVFIGRARTSTPTPPHAKPARSAAPRAHRPPSSVMDSGYSSSYAAAAGMHVVICPWLAFGHLLPCLDLAQRLASRGHRVSFVSTPRNISRLPPVRPALAPLVAFVALPLPRVEGLPDGAESTNDVPHDRPDMVELHRRAFDGLAAPFSEFLGTACADWVIVDVFHHWAAAAALEHKVPCAMMLLGSAHMIASIADRRLERAETESPAAAGQGRPAAAPTFEVARMKLIRTKGSSGMSLAERFSLTLSRSSLVVGRSCVEFEPETVPLLSTLRGKPITFLGLMPPLHEGRREDGEDATVRWLDAQPAKSVVYVALGSEVPLGVEKVHELALGLELAGTRFLWALRKPTGVSDADLLPAGFEERTRGRGVVATRWVPQMSILAHAAVGAFLTHCGWNSTIEGLMFGHPLIMLPIFGDQGPNARLIEAKNAGLQVARNDGDGSFDREGVAAAIRAVAVEEESSKVFQAKAKKLQEIVADMACHERYIDGFIQQLRSYKD

Assay: Directed evolution of UGT76G1, Rebaudioside D to Rebaudioside M, round 1 (Example 26)
Format: biochemical
Conditions: 100 μL fresh lysate, 0.5 mM Rebaudioside D, 30° C., pH 7.2
How it was run: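 Cleared cell lysate (Bugbuster) incubated with 0.5 mM Rebaudioside D, 3 mM MgCl2 and 2.5 mM UDP-glucose in 50 mM phosphate pH 7.2 at 30 °C. Samples at 2, 4, 7 and 24 h analysed by HPLC-CAD for conversion and initial rate.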

Molecule | conversion Reb D to Reb M after 24 h | initial rate
B1 | 1.2% | 2.3E+05 Reb M area/min
B2 | 1.6% | 3.6E+05 Reb M area/min
B3 | 1.8% | 4.5E+05 Reb M area/min
B4 | −1.3% | −1.7E+05 Reb M area/min
B5 | 1.2% | 2.7E+05 Reb M area/min
B6 | 0.5% | 1.8E+06 Reb M area/min

Assay: Activity of in-vivo produced enzymes for transformation of Rebaudioside A (Example 22)
Format: biochemical
Conditions: 0.5 mM, in-vivo produced enzyme lysate
Procedure: Activity tests were performed at 5 mL scale with 1,000 μL of thawed lysate for the transformation of Rebaudioside A using 0.5 mM of substrate, 2.5 mM of UDP-Glucose and 3 mM MgCl2 in 50 mM Sodium Phosphate buffer at pH 7.2. Samples were taken and analyzed by HPLC.
(§1) The HPLC assay was performed as described in EXAMPLE 20.

Molecule | Conversion after 45 hrs.
B7 | 1.1%
B8 | 0.8%
B9 | 2.9%

Same assay, conditions: after 45 hrs.

Molecule | Reb D selectivity
B7 | 100%
B8 | 100%
B9 | Reb D Not detected

Assay: Catalytic test Rebaudioside A to Rebaudioside D with in-vitro expressed UDP-glucosyltransferases (Examples 20, 21), HPLC
Format: biochemical
Conditions: 0.5 mM Rebaudioside A, 30° C., HPLC
Procedure: The prepared expression medium mix was added to the plasmid solution and the solution was allowed to incubate at 30° C. for 3 hours while mixing the mixture every 45 minutes. 5 μL of the mixture was frozen whereas the remainder was used for the catalytic test for the conversion of Rebaudioside A to Rebaudioside D.
(§2) 430 μL of a reaction mixture containing 0.5 mM Rebaudioside A, 3 mM MgCl2, 50 mM phosphate buffer (pH7.2) and 2.5 mM UDP-glucose was added to a 1.5 mL sterile microtube. 52 μl of the enzyme expression medium was added and the resulting mixture was allowed to react at 30° C. for 24 hours. 125 μL samples were taken after 2 hours, 16 hours and 24 hours and added to a 115 μL of 60% methanol and 10 μL of 2 N H2SO4. The quenched sample was centrifuged at 18,000 g for 2 minutes at RT. 200 μL was transferred to an HPLC vial and analyzed.
The HPLC assay was performed as follows:
as §2, with “μL” for “μl”, “to” for “to an”
as §1

Molecule | Steviol glycoside conversion in reaction mixture, Reb A | Steviol glycoside conversion in reaction mixture, Reb D | Steviol glycoside conversion in reaction mixture, Reb UNK (later identified as reb D2)
B7 | 96.7 % area | 2.1 % area | 
B8 | 99.4 % area | 0.6 % area | 
B9 | 92.8 % area | 0.14 % area | 7.0 % area

Same assay, conditions: in-vitro expressed enzyme

Molecule | Conversion RebA to RebD
B7 | Active
B8 | Active
B9 | Active
B10 | Active
